B1: GpH7-A5/GpH7-B3 variant P329_10E/GpL16-k0 (antibody, human IgG1, kappa)
heavy 1: not shown
heavy 2: not shown
light: DIVMTQSPLSLPVTPGEPASISCQASESLVHSNRNTYLHWYLQKPGQSPQLLIYKVSNRFSGVPDRFSGSGSGTDFTLKISRVEAEDVGVYYCSQNTHVPPTFGQGTKVEIERTVAAPSVFIFPPSDEQLKSGTASVVCLLNNFYPREAKVQWKVDNALQSGNSQESVTEQDSKDSTYSLSSTLTLSKADYEKHKVYACEVTHQGLSSPVTKSFNRGEC
notes: He Ab; copies: 1 + 1 + 2
B2: GpH7-A5/GpH7-B3 variant P271_03V/GpL16-k0 (antibody, human IgG1, kappa)
heavy 1: not shown
heavy 2: not shown
light: B1 light
notes: He Ab; copies: 1 + 1 + 2
B3: GpH7-A5/GpH7-B3 variant P238_09D/GpL16-k0 (antibody, human IgG1, kappa)
heavy 1: not shown
heavy 2: not shown
light: B1 light
notes: He Ab; copies: 1 + 1 + 2
B4: GpH7-A5/GpH7-B3 variant P271_02A/GpL16-k0 (antibody, human IgG1, kappa)
heavy 1: not shown
heavy 2: not shown
light: B1 light
notes: He Ab; copies: 1 + 1 + 2
B5: GpH7-A5/GpH7-B3 variant P271_14T/GpL16-k0 (antibody, human IgG1, kappa)
heavy 1: not shown
heavy 2: not shown
light: B1 light
notes: He Ab; copies: 1 + 1 + 2
B6: GpH7-A5/GpH7-B3 variant P271_04F/GpL16-k0 (antibody, human IgG1, kappa)
heavy 1: not shown
heavy 2: not shown
light: B1 light
notes: He Ab; copies: 1 + 1 + 2
B7: GpH7-A5/GpH7-B3 variant P331_10E/GpL16-k0 (antibody, human IgG1, kappa)
heavy 1: not shown
heavy 2: not shown
light: B1 light
notes: He Ab; copies: 1 + 1 + 2
B8: GpH7-A5/GpH7-B3 variant P271_07I/GpL16-k0 (antibody, human IgG1, kappa)
heavy 1: not shown
heavy 2: not shown
light: B1 light
notes: He Ab; copies: 1 + 1 + 2
B9: GpH7-A5/GpH7-B3 variant P271_01G/GpL16-k0 (antibody, human IgG1, kappa)
heavy 1: not shown
heavy 2: not shown
light: B1 light
notes: He Ab; copies: 1 + 1 + 2
B10: GpH7-A5/GpH7-B3 variant P271_09D/GpL16-k0 (antibody, human IgG1, kappa)
heavy 1: not shown
heavy 2: not shown
light: B1 light
notes: He Ab; copies: 1 + 1 + 2
B11: GpH7-A5/GpH7-B3 variant P331_02A/GpL16-k0 (antibody, human IgG1, kappa)
heavy 1: not shown
heavy 2: not shown
light: B1 light
notes: He Ab; copies: 1 + 1 + 2
B12: GpH7-A5/GpH7-B3 variant P271_19Q/GpL16-k0 (antibody, human IgG1, kappa)
heavy 1: not shown
heavy 2: not shown
light: B1 light
notes: He Ab; copies: 1 + 1 + 2
B13: GpH7-A5/GpH7-B3 variant P331_20W/GpL16-k0 (antibody, human IgG1, kappa)
heavy 1: not shown
heavy 2: not shown
light: B1 light
notes: He Ab; copies: 1 + 1 + 2
B14: GpH7-A5/GpH7-B3 variant P238_10E/GpL16-k0 (antibody, human IgG1, kappa)
heavy 1: not shown
heavy 2: not shown
light: B1 light
notes: He Ab; copies: 1 + 1 + 2
B15: GpH7-A5/GpH7-B3 variant P331_11K/GpL16-k0 (antibody, human IgG1, kappa)
heavy 1: not shown
heavy 2: not shown
light: B1 light
notes: He Ab; copies: 1 + 1 + 2
B16: GpH7-A5/GpH7-B3 variant P271_12R/GpL16-k0 (antibody, human IgG1, kappa)
heavy 1: not shown
heavy 2: not shown
light: B1 light
notes: He Ab; copies: 1 + 1 + 2
B17: GpH7-A5/GpH7-B3 variant Q295_09D/GpL16-k0 (antibody, human IgG1, kappa)
heavy 1: not shown
heavy 2: not shown
light: B1 light
notes: He Ab; copies: 1 + 1 + 2
B18: GpH7-A5/GpH7-B3 variant P238_19Q/GpL16-k0 (antibody, human IgG1, kappa)
heavy 1: not shown
heavy 2: not shown
light: B1 light
notes: He Ab; copies: 1 + 1 + 2
B19: GpH7-A5/GpH7-B3 variant P271_18N/GpL16-k0 (antibody, human IgG1, kappa)
heavy 1: not shown
heavy 2: not shown
light: B1 light
notes: He Ab; copies: 1 + 1 + 2
B20: GpH7-A5/GpH7-B3 variant L328_19Q/GpL16-k0 (antibody, human IgG1, kappa)
heavy 1: not shown
heavy 2: not shown
light: B1 light
notes: He Ab; copies: 1 + 1 + 2
B21: GpH7-A5/GpH7-B3 variant P331_13S/GpL16-k0 (antibody, human IgG1, kappa)
heavy 1: not shown
heavy 2: not shown
light: B1 light
notes: He Ab; copies: 1 + 1 + 2
B22: GpH7-A5/GpH7-B3 variant P271_13S/GpL16-k0 (antibody, human IgG1, kappa)
heavy 1: not shown
heavy 2: not shown
light: B1 light
notes: He Ab; copies: 1 + 1 + 2
B23: GpH7-A5/GpH7-B3 variant P331_16H/GpL16-k0 (antibody, human IgG1, kappa)
heavy 1: not shown
heavy 2: not shown
light: B1 light
notes: He Ab; copies: 1 + 1 + 2
B24: GpH7-A5/GpH7-B3 variant N325_09D/GpL16-k0 (antibody, human IgG1, kappa)
heavy 1: not shown
heavy 2: not shown
light: B1 light
notes: He Ab; copies: 1 + 1 + 2
B25: GpH7-A5/GpH7-B3 variant Q295_02A/GpL16-k0 (antibody, human IgG1, kappa)
heavy 1: not shown
heavy 2: not shown
light: B1 light
notes: He Ab; copies: 1 + 1 + 2
B26: GpH7-A5/GpH7-B3 variant Q295_08L/GpL16-k0 (antibody, human IgG1, kappa)
heavy 1: not shown
heavy 2: not shown
light: B1 light
notes: He Ab; copies: 1 + 1 + 2
B27: GpH7-A5/GpH7-B3 variant P331_04F/GpL16-k0 (antibody, human IgG1, kappa)
heavy 1: not shown
heavy 2: not shown
light: B1 light
notes: He Ab; copies: 1 + 1 + 2
B28: GpH7-A5/GpH7-B3 variant P271_08L/GpL16-k0 (antibody, human IgG1, kappa)
heavy 1: not shown
heavy 2: not shown
light: B1 light
notes: He Ab; copies: 1 + 1 + 2
B29: GpH7-A5/GpH7-B3 variant P271_10E/GpL16-k0 (antibody, human IgG1, kappa)
heavy 1: not shown
heavy 2: not shown
light: B1 light
notes: He Ab; copies: 1 + 1 + 2
B30: GpH7-A5/GpH7-B3 variant P271_20W/GpL16-k0 (antibody, human IgG1, kappa)
heavy 1: not shown
heavy 2: not shown
light: B1 light
notes: He Ab; copies: 1 + 1 + 2
B31: GpH7-A5/GpH7-B3 variant P331_06M/GpL16-k0 (antibody, human IgG1, kappa)
heavy 1: not shown
heavy 2: not shown
light: B1 light
notes: He Ab; copies: 1 + 1 + 2

Molecular target: T1, FcγRIIIa extracellular domain, C-terminal His tag (human, UniProt P08637 17-208)
T1 construct: extracellular domain; also called 3a
Experiment: SPR, binding activity relative to GpH7-A5/GpH7-B3/GpL16-k0 (=100)

T1 sequence (P08637 other isoform, or with tags, fused parts or gaps): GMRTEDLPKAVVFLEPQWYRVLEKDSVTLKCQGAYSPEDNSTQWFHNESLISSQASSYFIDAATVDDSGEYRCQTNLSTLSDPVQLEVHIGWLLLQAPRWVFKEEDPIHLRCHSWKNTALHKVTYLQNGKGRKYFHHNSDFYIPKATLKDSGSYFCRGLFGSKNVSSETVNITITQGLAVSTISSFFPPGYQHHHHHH

He/Con 3a [%]	Binder
52.7	B1
73.5	B2
100	B3
83.7	B4
59.2	B5
65.6	B6
68.7	B7
80.2	B8
119	B9
97.7	B10
82.5	B11
84.6	B12
71.9	B13
98.9	B14
61.8	B15
87.6	B16

He/Con 3a [%]	Binder
85.6	B17
52.7	B18
94	B19
83.4	B20
80.9	B21
79.8	B22
73.4	B23
53	B24
111	B25
120	B26
70.7	B27
74.5	B28
98.2	B29
77.8	B30
68.4	B31

— US20260167699A1 (Chugai, published 2026)
